The nature of the data set: protein stability index of a GFP-peptide fusion (yeast GPS) (PSI 1-4); higher = more stable; sorted into four equal gates, so the index is relative within each strain. An outline of the steps:
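Tiled 17-residue peptides from yeast proteins were fused downstream of GFP on a plasmid that also expresses Cherry, and the pooled library was carried in yeast. Mid-log cultures grown in leucine-free medium were sorted into four equal gates by GFP/Cherry fluorescence ratio. Plasmids from each gate were PCR-amplified and Illumina-sequenced, and reads were assigned to strains by barcodes. Each peptide's protein stability index is the sum, over gates, of the gate's read frequency multiplied by its gate number.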

± gives the uncertainty stated by the source.

In the case of KGPRFRKLTSQEINDRL [PRE8], the protein stability index by setting is: (doa10∆) 3.09 ± 0.098; (pdr5∆) 3.19 ± 0.11; (san1∆) 3.06 ± 0.18; (ubr1∆) 3.58 ± 0.093.
Turning to KHAEFDLSLLGYCDDIA [SIR2], the protein stability index is, setting by setting: (doa10∆) 3 ± 0.088; (pdr5∆) 2.68 ± 0.066; (san1∆) 2.99 ± 0.056; (ubr1∆) 2.32 ± 0.063.
On to KHGTYDKLDDDGLIAPG [RPB2], for which the protein stability index is, setting by setting: (doa10∆) 3.02 ± 0.21; (pdr5∆) 2.92 ± 0.24.
KHKKKHLKHENANDETT [RPB4] had a protein stability index (doa10∆) of 2.92 ± 0.053, a protein stability index (pdr5∆) of 2.84 ± 0.085, a protein stability index (san1∆) of 2.84 ± 0.11 and a protein stability index (ubr1∆) of 3.19 ± 0.074.
In turn, KHLEDNTLLVTGPFKVN [RPL6B] yielded a protein stability index (doa10∆) of 3.03 ± 0.18, a protein stability index (pdr5∆) of 2.53 ± 0.16, a protein stability index (san1∆) of 3.08 ± 0.093 and a protein stability index (ubr1∆) of 1.78 ± 0.072.
Sequence KHVGFELLSMGNAKESK [SRP72] yielded a protein stability index (doa10∆) of 2.88 ± 0.11, a protein stability index (pdr5∆) of 2.03 ± 0.14, a protein stability index (san1∆) of 2.4 ± 0.18 and a protein stability index (ubr1∆) of 3.24 ± 0.14.
With KHWGGGILGNKAQAKMD [RPL8A], the protein stability index amounted to 3.39 ± 0.13 (doa10∆), 3.47 ± 0.11 (pdr5∆), 3.53 ± 0.066 (san1∆) and 3.35 ± 0.087 (ubr1∆).
Consider KHWTEKSLHEMNERDWR [PRP28], for which the protein stability index is, setting by setting: (doa10∆) 3.55 ± 0.21; (pdr5∆) 3.02 ± 0.3; (san1∆) 2.97 ± 0.2.
On to KIADLVRIPPDQFHRDT [RPC25], for which the protein stability index is, setting by setting: (doa10∆) 2.18 ± 0.063; (pdr5∆) 2.52 ± 0.062; (san1∆) 2.45 ± 0.085; (ubr1∆) 2.93 ± 0.088.
In the case of KIAERSLLLKNYLNDMH [SKP1], the protein stability index by setting is: (doa10∆) 2.55 ± 0.12; (pdr5∆) 2.54 ± 0.07; (san1∆) 1.81 ± 0.17; (ubr1∆) 1.78 ± 0.067.
Take KIALREYINNCKKNTKK [POP4]: the protein stability index reads like this: (pdr5∆) 2.86 ± 0.27; (san1∆) 3.01 ± 0.087; (ubr1∆) 2.89 ± 0.15.
KIAVLNNDKREIQEELE [SMC1]: the protein stability index is, setting by setting: (doa10∆) 3.23 ± 0.067; (pdr5∆) 3.37 ± 0.056; (san1∆) 3.32 ± 0.039; (ubr1∆) 3.25 ± 0.047.
In turn, KIFIKDPKFVNSLLAKL [YML103C/NUP188] came in with a protein stability index (doa10∆) of 2.25 ± 0.14, a protein stability index (pdr5∆) of 2.25 ± 0.063, a protein stability index (san1∆) of 1.72 ± 0.1 and a protein stability index (ubr1∆) of 2.39 ± 0.068.
For KIFTPNLLQISAAELER [SNF5], the protein stability index (doa10∆) was 1.77 ± 0.064, the protein stability index (pdr5∆) is 1.97 ± 0.061, the protein stability index (san1∆) came out at 1.76 ± 0.1 and the protein stability index (ubr1∆) was found to be 1.33 ± 0.066.
For the sequence KIGPLGLSPKKVGEDIA [RPL12A], the protein stability index came to 3.3 ± 0.16 (doa10∆), 3.2 ± 0.18 (pdr5∆), 3.27 ± 0.2 (san1∆) and 3.38 ± 0.24 (ubr1∆).
Consider KIINKPNELSQILTVDP [RPC82], for which the protein stability index (doa10∆) was determined as 3.13 ± 0.28, the protein stability index (pdr5∆) came to 2.56 ± 0.13, the protein stability index (san1∆) stood at 3.01 ± 0.075 and the protein stability index (ubr1∆) is 2.78 ± 0.09.
Regarding KILQKRSISKELIVSEE [SIR3], the protein stability index (doa10∆) came to 2.37 ± 0.064, the protein stability index (pdr5∆) was 2.52 ± 0.075, the protein stability index (san1∆) came to 2.28 ± 0.066 and the protein stability index (ubr1∆) was found to be 2.37 ± 0.052.
KIMNVTTDSLTKVLQAD [YMR129W/POM152]: the protein stability index runs as follows: (doa10∆) 3.25 ± 0.068; (pdr5∆) 3.05 ± 0.068; (san1∆) 3.12 ± 0.04; (ubr1∆) 3.23 ± 0.064.
In the case of KIPLFTFAKSKNYSRPS [SIR4], the protein stability index (doa10∆) is 2.39 ± 0.092, the protein stability index (pdr5∆) was found to be 2.12 ± 0.081, the protein stability index (san1∆) worked out at 1.74 ± 0.1 and the protein stability index (ubr1∆) was found to be 2.42 ± 0.064.
The corresponding values for KIQQHNTILNSSSDFRL [BRR2] are 2.71 ± 0.06, 2.89 ± 0.067, 2.89 ± 0.041 and 2.78 ± 0.046.
The sequence KIREDHINKIPSNSTTT [SRB8] yielded a protein stability index (doa10∆) of 2.63 ± 0.051, a protein stability index (pdr5∆) of 2.71 ± 0.044, a protein stability index (san1∆) of 2.54 ± 0.056 and a protein stability index (ubr1∆) of 2.81 ± 0.034.
On to KIRELEAELSSTKVENS [YIL149C/MLP2], for which the protein stability index is, setting by setting: (doa10∆) 2.79 ± 0.13; (pdr5∆) 3.12 ± 0.099; (san1∆) 3.23 ± 0.089; (ubr1∆) 3.12 ± 0.064.
Take KIVDKDGIRQVDDFQAQ [PRE1]: the protein stability index (doa10∆) turned out to be 2.9 ± 0.14 and the protein stability index (pdr5∆) is 2.9 ± 0.11.
As to KIVYIAPLKALVQEQVR [BRR2], the protein stability index came to 1.4 ± 0.045 (doa10∆), 1.59 ± 0.044 (pdr5∆), 1.41 ± 0.089 (san1∆) and 1.3 ± 0.051 (ubr1∆).
Consider KKACIIFFDEIDAVGGA [RPT1], for which the protein stability index reads like this: (doa10∆) 2.39 ± 0.052; (pdr5∆) 2.67 ± 0.054; (san1∆) 2.81 ± 0.055; (ubr1∆) 2.73 ± 0.038.
As to KKASKVTVDADIDDILK [ISW2], the protein stability index runs as follows: (doa10∆) 2.75 ± 0.081; (pdr5∆) 3.18 ± 0.065; (san1∆) 3 ± 0.058; (ubr1∆) 3.1 ± 0.046.
In the case of KKDRATGDADEPELRVL [RPO21], the protein stability index is, setting by setting: (doa10∆) 3.53 ± 0.11; (pdr5∆) 3.48 ± 0.074; (san1∆) 3.39 ± 0.06; (ubr1∆) 3.43 ± 0.046.
For KKEANLFPEQQTKEIKT [RPL6B], the protein stability index reads like this: (doa10∆) 2.62 ± 0.08; (pdr5∆) 3.25 ± 0.074; (san1∆) 2.56 ± 0.082; (ubr1∆) 3.23 ± 0.076.
KKEELVEIAYHKCDELI [RPO31] registered a protein stability index (doa10∆) of 3.13 ± 0.25, a protein stability index (pdr5∆) of 2.96 ± 0.1 and a protein stability index (ubr1∆) of 3.14 ± 0.093.
Regarding KKFIEISDVKIQVAAFI [PRP8], the protein stability index by setting is: (doa10∆) 2.84 ± 0.058; (pdr5∆) 2.54 ± 0.052; (san1∆) 2.65 ± 0.048; (ubr1∆) 2.55 ± 0.042.
On the same counts, the results for KKFVSQIQKNVDLLQFP [POP3] are 2.65 ± 0.064, 2.23 ± 0.073, 3.34 ± 0.065 and 2.64 ± 0.053.
Sequence KKGEYARFKSKDERDTW [SMC3] registered a protein stability index (pdr5∆) of 3.23 ± 0.17, a protein stability index (san1∆) of 2.69 ± 0.098 and a protein stability index (ubr1∆) of 3.32 ± 0.17.
With KKGKSSDKDATTDGKND [RPN1], the protein stability index was 3.28 ± 0.2 (pdr5∆), 3.44 ± 0.16 (san1∆) and 3.52 ± 0.2 (ubr1∆).
Take KKHTKKFKRHHSDRYHR [RPL32]: the protein stability index came out at 2.88 ± 0.038 (doa10∆), 2.99 ± 0.034 (pdr5∆), 2.87 ± 0.029 (san1∆) and 2.971 ± 0.025 (ubr1∆).
With KKKVYTTPKKIKHKHKK [RPS31], the protein stability index worked out at 3.38 ± 0.16 (doa10∆) and 2.86 ± 0.2 (pdr5∆).
For KKMTKKAKRSNLYTPKA [PRP8], the protein stability index runs as follows: (doa10∆) 2.9 ± 0.059; (pdr5∆) 2.19 ± 0.038; (san1∆) 2.39 ± 0.059; (ubr1∆) 2.3 ± 0.031.
For the sequence KKNNAASELANPYSSYV [YAR002W/NUP60], the protein stability index (doa10∆) was determined as 2.99 ± 0.062, the protein stability index (pdr5∆) was determined as 3.02 ± 0.047, the protein stability index (san1∆) is 2.98 ± 0.047 and the protein stability index (ubr1∆) was found to be 2.83 ± 0.054.
Take KKNNKIKESSKKIKGKS [SRP21]: the protein stability index (doa10∆) came to 3.07 ± 0.1 and the protein stability index (san1∆) was determined as 3.26 ± 0.052.
As to KKPGKIAKPNTANAKHT [SMB1], the protein stability index stood at 2.87 ± 0.071 (doa10∆), 2.73 ± 0.091 (pdr5∆), 2.75 ± 0.089 (san1∆) and 2.85 ± 0.066 (ubr1∆).

These data come from the supplement of paper PMC9732359.
